assay: soluble on expression in E. coli; label from the status in PepcDB or PDB records

Sequence | soluble on expression in E. coli
MSLSKMAALITQEIGSFRKPEYLSMEFHKIEGTEKFKELAERATIDTLKIFENTGLDNVGIGGEMYRWEMYEHPAERIKGLIFYGMVRSFDNRYYRKGSVIDKIERRGSFHMDEVEFVAKSTKKPIKIPITGPYTMMDWSFNDHYNDRHELAMEFARIINEELKEIQSKWPYISNGRKLEIQIDEPATTTHPDEMDIVVDSVNKSIEGIDAELSLHVCYSRDYRLLYDRIPELNIDGYNLEYSNRDTTDLGVEDAKRPGFQDIKYFNEVNESLQRKKFIGVGVTDVHIDFIEPVKLIEDRIKYVLNIIKDPELVKLNPDCGLRTRSRSIGEQKLRNMVIAKNNVLKDISEGHHHHHH | not soluble
DSDDRVTPPAEPLDRMPDPYRPSYGRAETVVNNYIRKWQQVYSHRDGRKQQMTEEQREWLSYGCVGVTWVNSGQYPTNRLAFASFDEDRFKNELKNGRPRSGETRAEFEGRVAKESFDEEKGFQRAREVASVMNRALENAHDESAYLDNLKKELANGNDALRNEDARSPFYSALRNTPSFKERNGGNHDPSRMKAVIYSKHFWSGQDRSSSADKRKYGDPDAFRPAPGTGLVDMSRDRNIPRSPTSPGEGFVNFDYGWFGAQTEADADKTVWTHGNHYHAPNGSLGAMHVYESKFRNWSEGYSDFDRGAYVITFIPKSWNTAPDKVKQGWP | soluble
MGSDKIHHHHHHMAITIQFSNYALKTDETLIQRIQFVYSPLNELFRSLHVLLNPRHHGTNIDWVIRIQNKLTKEFYENLHYFRLFYELGVSPILLCNFRYHATTIEEEIQNLKKFLDELSTAQLIEHLEKVTSDRENSFIPTLARGLEWKDFSLNKDNQLLSDLRKDASSVYQHLFSFVDWYRQEIFDETWESKDIQRKLLTEIQHQASFLKESGFKAMFNHLQIDRIHWRKDRLVIIKPFDKDIQLKDSDSIMLLPSYFIWPHLFVESFNQGIAVTYDITEQPSYYNATPENLITIFKALSDPVRLQIMNYVIDKPSTTQSLAQILVMSNSSVSRHLQILKEANLLTTTKAKKFVLYEPTQLITQLMPNFYHFFKN | not soluble
MNQEFFMLSQAMVEHLNEQINLEFFSSNLYLQMSAWCEDKGFDGAAEFLRAHAVEEMQHMQRLFTYVSETGALPILGAIAAPRHDFASLGEVFRETYQHEQKITQQINKLAHVAFTSQDYSTFNFLQWYVAEQHEEEKLFKGILDKLELVGEDGKALFFIDKDLAALAKKGSSSVMDAPAE | not soluble
LRASEIMNRTLDLQIIMDDLLNLLLKEFKLDLAVIRLVDEKGVLRVRSYSGKGIAGIAGKDWEPEIETYIGEAFLSNRLQFVNDTQYMTKPLTRELMQKEGIKSFAHIPISRKGEPPFGILSVFSRTIVGLFNEPFLNLLESLAGQLAQAVKIVTEMEAKEREREEKERILLENA | soluble
MSLYDTILFPTDGSNAAESVLEYALQIASEHEATIHILNVADTGRDSVTTIRGEVIDVLETEGERIVAEATQYAKDEGVPVVSAVLQGDPHKTIVDYSQQSDSDCIVMPTHGQRGIQRILLGSVTERVINTAEVPVIAVNPDRDRPLVYPPQHVLVPTDGSRGADLALTEGIAVARATDATLHLLHVVETGGLGPDARSVLKEGELTERANEIMAGATEKIDDTSLDTVTSVIEHGDPSKVICDYIDENEVDLAVMGTHGQTDFSRYVMGGVSAKLVRKSPVPVTWVREPESEGHHHHHH | soluble
MKMNEEKAVVVFSGGQDSTTCLFWAKKQFGEVEAVTFDYGQRHRREIDVAQAIADELGVRHTVLDLSLLGQLAPNALTRRDIAIEQKEGELPTTFVDGRNLLFLSFAAVFAKQRGARHIVTGVCETDFSGYPDCRDVFIKSLNVTLNLAMDYEFVIHTPLMWLTKAETWKLADELGALEFIRTKTLTCYNGIIADGCGECPACVLRKRGLDEYLREKEGVESR | not soluble
MQTVIFGRSGCPYSVRAKDLAEKLSNERDDFQYQYVDIRAEGITKEDLQQKAGKPVETVPQIFVDQQHIGGYTDFAAWVKENLDA | soluble
MVFMYIGTVMVEKYNKPHLTFGDQAAQLQLRGLIINNPDDCIGALEKIGYYRLSAYWYPFRKKKPKASRTTPFNYRLDEFEPKHTFEEAVALYRFDESLRRLLLEALGVIEIQLRTKIAYFAGKQDRFIHLKRELLDPIACCRVPKNSTQDSYQIWLHKYHKQIKRAGREDFIRHYQARYGNDIPIWIATEILDFGGVSKLFDFLPKQLKNQIALSFGAKEGTVVAGWIRNFNYIRNVSAHHSRLWNRLVITRIQAPNRNVVDPSIFHLADVKNRKSP | not soluble
MGSDKIHHHHHHMSITKRIRDNQRNTVLSPVPPFPKSMMLEPSNACNHACRFCGNNRSGIKRVNIPVDFARDILAQAAALGVEEVGLYLRGEPFLHPRLNEIVSYAKASGIGYVYLSSNGGCGTTEAYEAVLEAGLDSFKFSINAGNRQDFKAIHGKDDFEKVVERLRWLIAYREATGLDFKIYVSSTFIDATRGAILAMRDEFAPLVDEYYVHGTCPVPGVKSTDLDHGFSLPCPMVFNRVHVTAEGYLNACCFDFENALAVADLTRVPLNDAWASPLFEDLRRKHLMRNAKGVLCGNCVAGGGVEYEPLVMEFMSRSKRHENP | not soluble
VIADDFTGATDIASFLVENGMPTVQINDVPTGTQPEGCDAVVISLKTRSCPAQEAIKQSLAALVWLKKQGCQQVYFKYCSTFDSTAEGNIGPVTDALMVALDTSFTVISPALPVNGRTVYQGYLFVMNHLLAESGMRHHPINPMTDSYLPRLMEAQAQGRCGVIPAQTLDEGVAATRAALSRLQQEGYRYAVLDALNERHLEIQGEVLRDAPLVTGGSGLAMGLARQWAKHGVSQARSAGYPLSGRAVVLSGSCSQMTNQQVAFYRQHAPTRDVDVARCLSSETREAYAEALAQWVLSQDSELAPMISATASTQALAAIQQQYGATEASHAVEALFSLLAARLAEGGITRFIVAGGETSGVVTQSLGITGFHIGPCISPGVPWVNALHAPVSLALKSGNFGDES | not soluble
MAHHHHHHMAHGSFDAVRKEMETQEKIIATLQRDNESLLREKKEILSRCKQLEHDFEHLEAKHSLLLSAQQDFAVRSNMHTANDSAKIVNLQAQVEELQTNLETEKRRCALLLQERNDLAQSKSDTPSLVGSAEITNVAVVREQQGRSEDIVAKLRESQRIHSIQKSTIDALHSEVTRLESERKVSHSRESNLLREVDSLRTQVRDLESALQQKKGGIRELMSSCQAGSANAQRLKKQETRIRLLEKALLEKDEFTKRAMEELRAEAKKVCERYQSTVAELRQRLEVPKDDPELQKRISTLERENLDLRRALGGASVSLAVESAQPVQKLATEPKHHTDVTDKADKPGGQALKAPGSHELEITHLHSVIERLRAEICEHKQRNITLQSKLDSIHAEWDARLAEMKTNFALQIQTLRSAHNEELSRLEASHQTQLLEISKCSKADRGDSLASRLSRIVEEKGYDASLIAIGERLCFLEKRYCQKEEEKTHELLEMKRVAELEMKIQKEKTDLLLEQKNTQIKRFQVQLDELLAALSILQATS | not soluble
MSDVAVAADTTETPAAPTKASKATKASKATKASKATKAKTTKVPMVKADAAHPPFINMVTEAISSIKDRKGPSRAAILKYITTKYTLGDQANKINAHLRKALNKGLESNAFVQASGNGANGRFRLAEKTASVAKSPAAAKKDATGEKKATTTVAKKAATGEKKATTTVAKKAATGEKKATTTVAKKAAAGDKAKKTEVKVKKVKSPKKIAKSPVNKVTKSPVKKIAKSSSMKAAPKKAAAKPAKKAPAAAPEA | soluble
MSSALISSEQALNDYFTALLDEETAEFESTLKPEPVWEMAPAIQSVPNKSYFDAEIEELELPNLEDVQRLLSQLESSNPVADLDLEQILEENTAKIAKIDPVVQPCSVVEEIQEWEIETSYVEPDIETPESVIEDDLEPESVDTEAEREIAIETSIEEPVAEVPVVEAQAVPETQAGRNKLGTWTNTIREKDFQVLYFDVNGVTFAVPLDELGGIHRMTTLNHLIGRPAWYLGLQTNRDSQLDVVDTAKWVMAEKLRDESYKQAYQYIVMLGESAWGLASTQLMGTELLSTEKVRWREQVGKRPWLAGMVKEKMCALIHVQALIAMLNAGLDVKALEN | not soluble
MDERIQALRKEVDRVNREILRLLSERGRLVQEIGRLQTELGLPHYDPKREEEMLAYLTAENPGPFPDETIRKLFKEIFKASLDLEERQDQKKFLYSKRHKPEPTRVRVKDVVFGEKPLLIAGPCSIESEEQIMATARFLAARGVRVLRGGAFKPRTSPYGFQGLGVEGLKLGRKAADAFGMVFVTEVMDTRDVEVVAEYADILQIGARNMQNFALLKEVGKARRPVLLKRGLSATMEEWFYAAEYILAQGNEQVILAERGIRTFERWTRNTLDLSAVALAKQETHLPVVVDVTHAAGRTDLLAPLARAALAVGADGVHVEVHPNPKVALSDNQQQMDFAQFDRFLEAIRDLLQAP | soluble
MGSDKIHHHHHHMFKKYDAYLVGYYGMQNSGDDALMYATAWAAKNILGCNNTKVGLYGDYARETQSDNQLPLKFTQQFPGQNRLLHYKTAIQSKRIIFGGGSVLHSESDINLKRQLMSLANQKKSLAVGIGIGPFNSVMAEKSCAKFLNECGYVGVRDNASLAIARNIAPHANVHKTFDLAPLLLCSKQYKPSNRERQGIALTLCSVAIDAMGNTDELEEEKRVEQFVQLITKIYARTGEPITLIEFNGHNVLGDWKINNNIITRLLDKYIPVSIKKYDPNPIALLNKLSGYKAIVSMRLHGSILGYLANTPVLSINYHSKCKGWCDEVGMPEDYKIDLFNLNIEKIVSQIALGVSTTFQQPTLSINNALKNSLSNWSTQNEQFKFYRNYSTV | not soluble
SLSRYLLTDSPAVCVLSGERGVGTTTVLKRILNKTKNAVPIYINCPYDGYAALLPELAQLLGLDAESSEKDILQHLRNSEQCYLIAFDNAQRLVKPKVNGLVELMKLTNLLRRARKSHRVVLSIDKSSWRFIDRARGERLLFDLVTFMP | not soluble
AMAISITCPPPMSVEHADIWVKSYSLYSRERYICNSGFKRKAGTSSLTECVLNKATNVAHWTTPSLKCIRDPALVHQRPAPPSTVTTAGVTPQPESLSPSGKEPAAS | soluble
MFQIYEIFSSVFNFDPKMPENVGVKEDDDKVFAKEIAQLEEEFEANTLKAESLEKEIAYSKVQIETENVKFAAIEQEKAIEIIKLEKQIKIMEAKLDFMKQDPIEIEEIEKLKHRVEEETQRNTEYAESLKYIKEMIRIKKAEKNEKKQKNAIDN | not soluble
MKREILLERIDKLKQLMPWYVLEYYQSKLAVPYSFTTLYEYLKEYDRFFSWVLESGISNADKISDIPLSVLENMSKKDMESFILYLRERPLLNANTTKQGVSQTTINRTLSALSSLYKYLTEEVENDQGEPYFYRNVMKKVSTKKKKETLAARAENIKQKLFLGDETEGFLTYIDQEHPQQLSNRALSSFNKNKERDLAIIALLLASGVRLSEAVNLDLRDLNLKMMVIDVTRKGCKRDSVNVAAFAKPYLENYLAIRNQRYKTEKTDTALFLTLYRGVPNRIDASSVEKMVAKYSEDFKVRVTPHKLRHTLATRLYDATKSQVLVSHQLGHASTQVTDLYTHIVSDEQKNALDSL | not soluble
MSEEKKDSSRPPVRNYLKQIDDFFEQTPLRNVIADLNHFFQKGNRLLTFPVDLYEVGEELVVTAELPGIQKEQIQIEIQSEYLKVSVKEEILEEEEQTSHNYYRRERSISEASRLIKLPYSINKKAAKASYQNGVLEIRAPKLPQQHDILSID | not soluble
